We go through 4 proteins from publication PMC11766367, “Structure-Function Relationship of the β-Hairpin of Thermus thermophilus HB27 Laccase” (International Journal of Molecular Sciences, 2025).

Substrate in data set [1]: CCn1c(=NN=c2sc3cc(S(=O)(=O)O)ccc3n2CC)sc2cc(S(=O)(=O)O)ccc21
In words: spectrophotometric oxidation assay, Michaelis-Menten fit. Particulars: pH 6.0, 61.5 °C, free copper contradictory: caption says without, methods and text suggest 1 mM CuSO4 added. In kind it is biochemical, Thermus thermophilus. The text has this: (§1) spectrophotometric oxidation assay, Michaelis-Menten fit on Tth-Lac

Substrate in data set [2]: COc1cc(C=NN=Cc2cc(OC)c(O)c(OC)c2)cc(OC)c1O
Described as above. In kind it is biochemical, Thermus thermophilus. Particulars: pH 6.0, 61.5 °C, free copper contradictory: caption says without, methods and text suggest 1 mM CuSO4 added.
Excerpt: as §1

Substrate in the data set “purified protein”: COc1ccccc1O
Briefly: purified protein. Particulars: pH 6.0, 61.5 °C, free copper contradictory: caption says without, methods and text suggest 1 mM CuSO4 added.

Substrate in data set [3]: COc1cccc(OC)c1O
Briefly: spectrophotometric oxidation assay, Michaelis-Menten fit. Particulars: pH 7.0, 61.5 °C, free copper contradictory: caption says with, methods and text suggest without, pH 7.0. The class given is biochemical, Thermus thermophilus.
Excerpt: as §1

B1: Tth-Lac (Thermus thermophilus HB27; DEL292-307/G291S) (protein)
chain: QGPSFPEPKVVRSQGGLLSLKLSATPTPLALAGQRATLLTYGGSFPGPTLRVRPRDTVRLTLENRLPEPTNLHWHGLPISPKVDDPFLEIPPGESWTYEFTVPKELAGTFWYHPHLHGRVAPQLFAGLLGALVVESSLDAIPELREAEEHLLVLKDLALQGGRPAPHTPMDWMNGKEGDLVLVNGALRPTLVAQKATLRLRLLNASNARYYRLALQDHPLYLIAADGGFLEEPLEVSELLLAPGERAEVLVRLRKEGRFLLQALPYDRSGPSRPETLLYLIAPKNPKPLPLPKALSPFPTLPAPVVTRRLVLTEDMMAARFFINGQVFDHRRVDLKGQAQTVEVWEVENQGDMDHPFHLHVHPFQVLSVGGRPFPYRAWKDVVNLKAGEVARLLVPLREKGRTVFHCHIVEHEDRGMMGVLEVG
notes: signal peptide removed, gene starts at residue 23; pET-22b(+), E. coli BL21 Gold (DE3) with CuSO4; heat step and CM-Sepharose; no tag mentioned; monomer
Broadly, the Km is the concentration of substrate that gives half-maximal velocity. The term Vmax denotes the top rate of the reaction or transport when substrate is in excess. On to B1, for which the Michaelis constant (Km) worked out at 280 ± 60 µM in data set [1] (C1Tth-Lac), 7.83 ± 1.35 µM in data set [2] (C1Tth-Lac) and 45 ± 8 µM in the data set “purified protein” (C1Tth-Lac). Moreover, the Vmax amounted to 12.34 ± 0.91 µmol/mg/min in data set [1] (C1Tth-Lac), 14.60 ± 0.80 µmol/mg/min in data set [2] (C1Tth-Lac) and 9.47 ± 0.46 µmol/mg/min in the data set “purified protein” (C1Tth-Lac).

B2: Tth-Lac (Thermus thermophilus HB27; A304G/DEL295-303) (protein)
chain: QGPSFPEPKVVRSQGGLLSLKLSATPTPLALAGQRATLLTYGGSFPGPTLRVRPRDTVRLTLENRLPEPTNLHWHGLPISPKVDDPFLEIPPGESWTYEFTVPKELAGTFWYHPHLHGRVAPQLFAGLLGALVVESSLDAIPELREAEEHLLVLKDLALQGGRPAPHTPMDWMNGKEGDLVLVNGALRPTLVAQKATLRLRLLNASNARYYRLALQDHPLYLIAADGGFLEEPLEVSELLLAPGERAEVLVRLRKEGRFLLQALPYDRGAMGGMPQGPSRPETLLYLIAPKNPKPLPLPKALSPFPTLPAPVVTRRLVLTEDMMAARFFINGQVFDHRRVDLKGQAQTVEVWEVENQGDMDHPFHLHVHPFQVLSVGGRPFPYRAWKDVVNLKAGEVARLLVPLREKGRTVFHCHIVEHEDRGMMGVLEVG
notes: as for B1
In the case of B2, the Km in data set [1] (P1Tth-Lac, pH 6.0) was determined as 1090 ± 160 µM; in data set [3] (P1Tth-Lac) it was 430 ± 60 µM; in “purified protein” (P1Tth-Lac), 49.9 ± 6 µM. Further, the Vmax in data set [1] (P1Tth-Lac, pH 6.0) was determined as 21.48 ± 1.81 µmol/mg/min; in data set [3] (P1Tth-Lac), 1.45 ± 0.07 µmol/mg/min; in the data set “purified protein” (P1Tth-Lac), 9.57 ± 0.47 µmol/mg/min.

B3: Tth-Lac (Thermus thermophilus HB27; A292G/DEL293-307) (protein)
chain: QGPSFPEPKVVRSQGGLLSLKLSATPTPLALAGQRATLLTYGGSFPGPTLRVRPRDTVRLTLENRLPEPTNLHWHGLPISPKVDDPFLEIPPGESWTYEFTVPKELAGTFWYHPHLHGRVAPQLFAGLLGALVVESSLDAIPELREAEEHLLVLKDLALQGGRPAPHTPMDWMNGKEGDLVLVNGALRPTLVAQKATLRLRLLNASNARYYRLALQDHPLYLIAADGGFLEEPLEVSELLLAPGERAEVLVRLRKEGRFLLQALPYDRGGGPSRPETLLYLIAPKNPKPLPLPKALSPFPTLPAPVVTRRLVLTEDMMAARFFINGQVFDHRRVDLKGQAQTVEVWEVENQGDMDHPFHLHVHPFQVLSVGGRPFPYRAWKDVVNLKAGEVARLLVPLREKGRTVFHCHIVEHEDRGMMGVLEVG
notes: as for B1
For the protein B3, the Michaelis constant (Km) in data set [1] (C2Tth-Lac, pH 6.0) is 940 ± 190 µM; in data set [2] (C2Tth-Lac, pH 6.0), 7.2 ± 1.13 µM; in data set [3] (C2Tth-Lac), 220 ± 30 µM; in the data set “purified protein” (C2Tth-Lac) it was 37 ± 5 µM. Also, the Vmax in data set [1] (C2Tth-Lac, pH 6.0) is 14.80 ± 1.43 µmol/mg/min; in data set [2] (C2Tth-Lac, pH 6.0), 7.20 ± 0.46 µmol/mg/min; in data set [3] (C2Tth-Lac) it was 0.87 ± 0.4 µmol/mg/min; in “purified protein” (C2Tth-Lac) it was 3.98 ± 0.21 µmol/mg/min.

B4: Tth-Lac (Thermus thermophilus HB27) (protein)
chain: QGPSFPEPKVVRSQGGLLSLKLSATPTPLALAGQRATLLTYGGSFPGPTLRVRPRDTVRLTLENRLPEPTNLHWHGLPISPKVDDPFLEIPPGESWTYEFTVPKELAGTFWYHPHLHGRVAPQLFAGLLGALVVESSLDAIPELREAEEHLLVLKDLALQGGRPAPHTPMDWMNGKEGDLVLVNGALRPTLVAQKATLRLRLLNASNARYYRLALQDHPLYLIAADGGFLEEPLEVSELLLAPGERAEVLVRLRKEGRFLLQALPYDRGAMGMMDMGGMAHAMPQGPSRPETLLYLIAPKNPKPLPLPKALSPFPTLPAPVVTRRLVLTEDMMAARFFINGQVFDHRRVDLKGQAQTVEVWEVENQGDMDHPFHLHVHPFQVLSVGGRPFPYRAWKDVVNLKAGEVARLLVPLREKGRTVFHCHIVEHEDRGMMGVLEVG
notes: as for B1
As to B4, the Km in data set [1] (pH 6.0) was 1030 ± 160 µM; in data set [2] (pH 6.0), 6.17 ± 0.5 µM; in data set [3] it was 880 ± 80 µM; in the data set “purified protein” it was 21 ± 2 µM. In addition, the Vmax in data set [1] (pH 6.0) came out at 28.48 ± 1.93 µmol/mg/min; in data set [2] (pH 6.0), 13.92 ± 0.31 µmol/mg/min; in data set [3], 6.00 ± 0.24 µmol/mg/min; in the data set “purified protein”, 5.14 ± 0.11 µmol/mg/min.
